We go through nine molecules from PMC5724825, “Structure-activity studies of Mdm2/Mdm4-binding stapled peptides comprising non-natural amino acids” (PLoS ONE, 2017).

Where a chain is given by its changes, count along the chain named. Bridge positions count the residues as written; N and C are the ends. Square brackets hold non-standard residues; d marks the D form. Trp(6-Cl) = N[C@@H](Cc1c[nH]c2cc(Cl)ccc12)C(=O)O; Trp(6-Me) = Cc1ccc2c(C[C@H](N)C(=O)O)c[nH]c2c1; S8 = C=CCCCCCC[C@](C)(N)C(=O)O; S5 = C=CCCC[C@](C)(N)C(=O)O; FAM = carboxyfluorescein

Test [1] deals with T1, Mdm4 (amino acids 1–108) (Homo sapiens, UniProt O15151).
T1 construct: Mdm4 and Mdm4-L98V (amino acids 1–108) were cloned with C-terminal 6xHIS tags; made in house; host or cells: Escherichia coli BL21(DE3)
T1 sequence (O15151 1-108): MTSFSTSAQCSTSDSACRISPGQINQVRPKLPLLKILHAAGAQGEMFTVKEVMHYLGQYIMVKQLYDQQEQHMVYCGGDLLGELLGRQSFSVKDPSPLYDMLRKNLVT
The test is described as follows: Competitive fluorescence anisotropy, Mdm4. It is filed as binding. The settings on record: from Table 2. As for the experimental part: (§1) Mdm4 and Mdm4-L98V (amino acids 1–108) were cloned with C-terminal 6xHIS tags. The constructs were then transformed into Escherichia coli BL21(DE3) (Invitrogen) competent cells. Cells were grown in LB medium at 37°C and induced at OD600 nm of 0.6 at 25°C with 0.25 mM IPTG and at 16°C with 1 mM IPTG for Mdm4-WT and Mdm4-L98V respectively. After overnight induction, the cells were harvested by centrifugation, resuspended in His-binding buffer (50 mM Bis-Tris pH 6.5, 1M NaCl, 20 mM imidazole, 0.5 mM DTT), and lysed by sonication. After centrifugation for 60 mins at 19,000 × g at 4°C, the cell lysate was then applied to a 1 mL HisTrap FF column (GE Healthcare) pre-equilibrated in His-binding buffer, washed and eluted off the column with His-elution buffer (50 mM Bis-Tris pH 6.5, 1M NaCl, 500 mM imidazole, 0.5 mM DTT) with a gradient elution of 35% elution buffer in 5 column volumes, followed by 35% to 100% elution buffer over 80 column volumes. Protein purity as assessed by SDS-PAGE was ~ 90%, and the fractions were pooled and buffer exchanged into 50 mM Bis-Tris pH 6.5, 350 mM NaCl, 1 mM DTT. The proteins were then concentrated using Amicon-Ultra (3 kDa MWCO) concentrator (Millipore).
(§2) Fluorescence anisotropy assays were performed as previously described. Titrations of purified Mdm2/Mdm4 proteins were incubated with 50 nM of carboxyfluorescein (FAM) labelled 12–1 peptide (FAM-[…]-NH2) to initially determine the dissociation constants for the peptide-protein interactions. Apparent Kds of peptides were next determined by competitive fluorescence anisotropy. Titrations of peptides were carried out at constant concentrations of Mdm2/Mdm2-M62A/Mdm4 (150 nM), Mdm4-L98V (250 nM) and labelled peptide (50 nM). Anisotropy measurements were carried out using the Envision Multilabel Reader (PerkinElmer). All experiments were carried out in PBS (2.7 mM KCl, 137 mM NaCl, 10 mM Na2HPO4 and 2 mM KH2PO4, pH 7.4), 4% DMSO and 0.1% Tween-20 buffer. All titrations were carried out in duplicate (3–6 repeats). Curve fitting was carried out using Prism (GraphPad).

The target in test [2] is Mdm2 (amino acids 6–125) (Homo sapiens, UniProt Q00987). The test can be described thus: Competitive fluorescence anisotropy, Mdm2. The note with it: from Table 2. Further details: Mdm2 (amino acids 6–125) was cloned as a GST-fusion protein; GST (N, cleaved yes); made in house; host or cells: Escherichia coli BL21(DE3) pLysS. It is filed as binding.
The target in test [3] is T2, Mdm4-L98V (amino acids 1–108) (Homo sapiens, UniProt O15151, L98V).
T2 construct: Mdm4 and Mdm4-L98V (amino acids 1–108) were cloned with C-terminal 6xHIS tags; made in house; host or cells: Escherichia coli BL21(DE3)
T2 sequence (O15151 1-108 L98V): T1 sequence (O15151 1-108) with L98V
The test can be described thus: Competitive fluorescence anisotropy, Mdm4-L98V. The note with it: from Table 2. The format is binding. On the procedure: as §1, §2

Test [4] deals with T3, Mdm4-L98V (amino acids 1–108) (UniProt O15151 1-108, L98V).
T3 construct: Mdm4 (also known as MdmX), amino acids 1-108, with L98V; also called L98V mutant; source: E. coli BL21(DE3), purified (HisTrap FF)
T3 sequence (looked up): T1 sequence (O15151 1-108) with L98V
The test is described as follows: fluorescence polarisation; competitive fluorescence anisotropy, apparent Kd; peptides titrated at constant Mdm2/Mdm2-M62A/Mdm4 (150 nM) or Mdm4-L98V (250 nM) and FAM-labelled 12-1 peptide (50 nM); PBS pH 7.4, 4% DMSO, 0.1% Tween-20. The note with it: both partners purified.

Test [5] deals with T4, Mdm4 (amino acids 1–108) (UniProt O15151 1-108).
T4 construct: Mdm4 (also known as MdmX), amino acids 1-108; also called Mdm4-WT; MdmX; source: E. coli BL21(DE3), purified (HisTrap FF)
T4 sequence (looked up): T1 sequence (O15151 1-108)
The test is described as above. The note with it: both partners purified.

Test [6] addresses T5, Mdm2 (amino acids 6–125) (UniProt Q00987 6-125).
T5 construct: Cloned in pGEX-6P-1; also called Mdm2 N-terminal domain; source: E. coli BL21(DE3) pLysS, purified (GSTrap, on-column PreScission cleavage, Resource S cation exchange)
The description is as above. The note with it: both partners purified.

The target in test [7] is T6, Mdm2-M62A (amino acids 6–125) (UniProt Q00987 6-125, M62A).
T6 construct: Cloned in pGEX-6P-1; source: E. coli BL21(DE3) pLysS, purified (GSTrap, on-column PreScission cleavage, Resource S cation exchange)
Described as above. The note with it: both partners purified.

In test [8] the target is T4, Mdm4 (amino acids 1–108). The test is described as above. The note with it: both partners purified. This is another data set of the same source.
For test [9], the target named is T3, Mdm4-L98V (amino acids 1–108). Described as above. The settings on record: both partners purified. This is another data set of the same source.

Consider `C=CCCCCCC[C@@](C)(NC(=O)[C@H](Cc1ccccc1)NC(=O)[C@H](CO)NC(=O)[C@@H](NC(C)=O)[C@@H](C)O)C(=O)N[C@@H](CCC(=O)O)C(=O)N[C@@H](Cc1ccc(O)cc1)C(=O)N[C@@H](Cc1c[nH]c2cc(Cl)ccc12)C(=O)N[C@@H](C)C(=O)N[C@@H](CC(C)C)C(=O)N[C@@H](CC(C)C)C(=O)N[C@@](C)(CCCC=C)C(N)=O` [M011-L], for which the “Reduced binding to Mdm4 of pre-stapled peptide compared to M011” value in [1] is ~ 4 fold. The “Reduced binding to Mdm2 of pre-stapled peptide compared to M011” value in test [2] is reported as ~ 20 fold.

Turning to `CC(=O)N[C@H](C(=O)N[C@@H](CO)C(=O)N[C@@H](Cc1ccccc1)C(=O)N[C@]1(C)CCCCCCC=CCCC[C@@](C)(C(N)=O)NC(=O)[C@H](CC(C)C)NC(=O)[C@H](CC(C)C)NC(=O)[C@H](C)NC(=O)[C@H](Cc2c[nH]c3ccccc23)NC(=O)[C@H](Cc2ccc(O)cc2)NC(=O)[C@H](CCC(=O)O)NC1=O)[C@@H](C)O` [PM2], the “Increase in binding affinity to Mdm4-L98V over binding to Mdm4” value in test [3] is ~ 1.4 fold.

With `CC(=O)N[C@H](C(=O)N[C@@H](CO)C(=O)N[C@@H](Cc1ccccc1)C(=O)N[C@]1(C)CCCCCCC=CCCC[C@@](C)(C(=O)N[C@@H](CO)C(=O)N[C@@H](C)C(=O)N[C@@H](C)C(N)=O)NC(=O)[C@H](CC(C)C)NC(=O)[C@H](CC(C)C)NC(=O)[C@H](C)NC(=O)[C@H](Cc2c[nH]c3cc(Cl)ccc23)NC(=O)[C@H](Cc2ccc(O)cc2)NC(=O)[C@H](CCC(=O)O)NC1=O)[C@@H](C)O` [VIP160], the “Improved binding to Mdm4 versus M011” value in [1] is recorded as ~ 1.7 fold. Further, the “Increase in binding affinity to Mdm4-L98V over binding to Mdm4” value in [3] is reported as ~ 2.5 fold. Also, the “Change in affinity for Mdm2 versus M011” value in test [2] was “no change in affinity for Mdm2”.

B1: M012 stapled peptide (peptide)
chain: Ac-TSF[S5]EY[Trp(6-Me)]ALL[S8]-NH2
modifications: staple 4-11; also: Trp(6-Me) D/L mixture, not separated
On to B1, for which the Kd in test [4] was 385 nM.

B2: PM2 stapled peptide (peptide)
chain: TSFXEYWALLL
modifications: not fully specified; N-terminus acetylated; C-terminus amidated; (S)-2-(4′pentenyl) alanine at position 4 and (S)-2-(7′-octenyl) alanine at position 11, fused via olefin metathesis (i, i+7 hydrocarbon linkage)
For B2, the figures for the Kd in test [5] and in test [4] were 101 nM and 72.3 nM, respectively.

B3: M012-L, linear precursor of M012 (peptide)
chain: Ac-TSF[S5]EY[Trp(6-Me)]ALL[S8]-NH2
modifications: bridges not given here; also: Trp(6-Me) not enantiomerically pure
B3: the Kd in test [5] stood at 411 nM; in [4] it was 165 nM.

B4: M011 stapled peptide (peptide)
chain: TSFXEYWALLL
modifications: not fully specified; N-terminus acetylated; C-terminus amidated; L-6-chlorotryptophan at W23 (p53 numbering); (S)-2-(4′pentenyl) alanine at position 4 and (S)-2-(7′-octenyl) alanine at position 11, fused via olefin metathesis (i, i+7 hydrocarbon linkage)
Take B4: the Kd in test [5] came to 335 nM; in test [4], 72.3 nM.

B5: carboxyfluorescein (FAM) labelled 12–1 peptide (peptide)
peptide: {FAM}-RFMDYWEGL-NH2
notes: 12-1 peptide, tracer of the fluorescence anisotropy assays; also called labelled peptide; source: synthetic peptide
Take B5: the binding result in test [6], in [7], in [8] and in test [9] was “binds” in each case.

B6: M011-L, linear precursor of M011 (peptide)
chain: Ac-TSF[S5]EY[Trp(6-Cl)]ALL[S8]-NH2
modifications: bridges not given here
For the molecule B6, the Kd in [5] came out at 1390 nM; in test [4], 594 nM.
